Drawing on US20220332804A1 (CSL INNOVATION, published 2022), this text covers Fold diff and Kd for one molecule.

The target of one assay is T1, human C2 A436S (human, UniProt P06681 21-752).
T1 sequence: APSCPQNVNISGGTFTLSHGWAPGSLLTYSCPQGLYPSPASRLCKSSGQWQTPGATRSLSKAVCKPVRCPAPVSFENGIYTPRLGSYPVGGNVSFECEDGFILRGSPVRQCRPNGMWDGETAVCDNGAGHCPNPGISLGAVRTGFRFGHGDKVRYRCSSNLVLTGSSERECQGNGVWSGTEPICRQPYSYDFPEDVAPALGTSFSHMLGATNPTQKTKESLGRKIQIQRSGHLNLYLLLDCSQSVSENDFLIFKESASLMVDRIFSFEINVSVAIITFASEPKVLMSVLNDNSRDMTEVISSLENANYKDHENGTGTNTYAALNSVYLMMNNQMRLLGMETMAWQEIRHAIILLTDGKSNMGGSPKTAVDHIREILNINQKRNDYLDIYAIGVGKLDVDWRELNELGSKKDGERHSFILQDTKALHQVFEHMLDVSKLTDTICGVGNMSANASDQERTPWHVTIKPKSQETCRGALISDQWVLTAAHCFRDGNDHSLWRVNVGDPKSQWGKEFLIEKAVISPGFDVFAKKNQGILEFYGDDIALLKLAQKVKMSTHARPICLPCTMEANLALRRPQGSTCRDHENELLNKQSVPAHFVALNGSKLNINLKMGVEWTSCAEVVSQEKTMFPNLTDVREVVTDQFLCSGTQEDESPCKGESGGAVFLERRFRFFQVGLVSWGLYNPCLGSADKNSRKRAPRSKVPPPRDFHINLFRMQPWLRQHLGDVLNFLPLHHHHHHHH
Kind of assay: SPR; KD relative to WT C2.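 Note: biacore SPR at 37 °C, anti-C2 mAbs captured on an anti-human IgG chip, alanine or serine C2 surface mutants tested, KD from 1:1 fit compared with wild-type C2.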 In general terms: SPR reads the build-up and loss of mass on a sensor chip optically.

A further assay deals with T2, human C2 D417A (human, UniProt P06681 21-752).
T2 sequence: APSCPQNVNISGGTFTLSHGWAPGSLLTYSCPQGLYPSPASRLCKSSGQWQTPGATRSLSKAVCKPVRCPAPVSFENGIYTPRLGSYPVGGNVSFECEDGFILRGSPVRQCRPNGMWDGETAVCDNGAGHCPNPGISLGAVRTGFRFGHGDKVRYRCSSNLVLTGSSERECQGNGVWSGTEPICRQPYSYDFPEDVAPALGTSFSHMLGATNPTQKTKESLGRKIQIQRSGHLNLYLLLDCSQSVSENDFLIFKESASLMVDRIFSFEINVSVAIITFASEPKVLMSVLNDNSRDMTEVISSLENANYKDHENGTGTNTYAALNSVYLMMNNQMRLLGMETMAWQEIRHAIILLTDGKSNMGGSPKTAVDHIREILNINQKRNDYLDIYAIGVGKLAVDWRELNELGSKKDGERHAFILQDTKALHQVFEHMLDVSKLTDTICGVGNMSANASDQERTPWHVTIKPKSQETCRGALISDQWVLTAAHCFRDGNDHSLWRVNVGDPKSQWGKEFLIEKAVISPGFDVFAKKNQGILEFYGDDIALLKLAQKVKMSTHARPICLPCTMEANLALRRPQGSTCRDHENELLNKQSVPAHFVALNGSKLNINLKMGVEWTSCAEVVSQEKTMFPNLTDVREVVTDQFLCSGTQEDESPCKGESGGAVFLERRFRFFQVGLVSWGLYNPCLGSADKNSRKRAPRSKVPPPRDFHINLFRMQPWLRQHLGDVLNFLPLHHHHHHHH
The assay can be described thus: SPR, mAb captured, C2 mutant analyte.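 Note: Anti-C2 mAbs captured on goat anti-human IgG Biacore CM5 chips, alanine or serine C2 surface mutants flowed over at 37 °C, double-referenced sensorgrams fitted to a 1:1 binding model.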

A further assay concerns the target T3, human C2 V465A (human, UniProt P06681 21-752).
T3 sequence: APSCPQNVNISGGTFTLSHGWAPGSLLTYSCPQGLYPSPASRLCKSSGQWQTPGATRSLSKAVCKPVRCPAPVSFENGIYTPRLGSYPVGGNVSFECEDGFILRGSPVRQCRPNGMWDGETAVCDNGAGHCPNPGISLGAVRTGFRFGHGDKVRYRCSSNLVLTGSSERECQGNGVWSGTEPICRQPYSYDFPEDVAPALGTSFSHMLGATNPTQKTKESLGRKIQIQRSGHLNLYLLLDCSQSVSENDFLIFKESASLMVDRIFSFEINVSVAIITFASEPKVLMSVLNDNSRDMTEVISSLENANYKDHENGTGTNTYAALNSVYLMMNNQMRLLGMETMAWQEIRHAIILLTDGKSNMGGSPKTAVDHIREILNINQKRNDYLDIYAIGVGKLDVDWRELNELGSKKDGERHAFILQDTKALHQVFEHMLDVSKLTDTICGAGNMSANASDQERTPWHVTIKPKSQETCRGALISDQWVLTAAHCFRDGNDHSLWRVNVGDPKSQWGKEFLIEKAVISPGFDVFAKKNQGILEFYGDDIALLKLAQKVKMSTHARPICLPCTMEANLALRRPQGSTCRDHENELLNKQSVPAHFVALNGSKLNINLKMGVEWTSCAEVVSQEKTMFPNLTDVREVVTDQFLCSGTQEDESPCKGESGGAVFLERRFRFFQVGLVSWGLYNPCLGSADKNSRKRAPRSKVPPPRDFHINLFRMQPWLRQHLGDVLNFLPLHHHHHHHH
Kind of assay: SPR, mAb captured, C2 mutant analyte.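 Note: Anti-C2 mAbs captured on goat anti-human IgG Biacore CM5 chips, alanine or serine C2 surface mutants flowed over at 37 °C, double-referenced sensorgrams fitted to a 1:1 binding model.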

In the next assay the target is T4, human C2 E476A (human, UniProt P06681 21-752).
T4 sequence: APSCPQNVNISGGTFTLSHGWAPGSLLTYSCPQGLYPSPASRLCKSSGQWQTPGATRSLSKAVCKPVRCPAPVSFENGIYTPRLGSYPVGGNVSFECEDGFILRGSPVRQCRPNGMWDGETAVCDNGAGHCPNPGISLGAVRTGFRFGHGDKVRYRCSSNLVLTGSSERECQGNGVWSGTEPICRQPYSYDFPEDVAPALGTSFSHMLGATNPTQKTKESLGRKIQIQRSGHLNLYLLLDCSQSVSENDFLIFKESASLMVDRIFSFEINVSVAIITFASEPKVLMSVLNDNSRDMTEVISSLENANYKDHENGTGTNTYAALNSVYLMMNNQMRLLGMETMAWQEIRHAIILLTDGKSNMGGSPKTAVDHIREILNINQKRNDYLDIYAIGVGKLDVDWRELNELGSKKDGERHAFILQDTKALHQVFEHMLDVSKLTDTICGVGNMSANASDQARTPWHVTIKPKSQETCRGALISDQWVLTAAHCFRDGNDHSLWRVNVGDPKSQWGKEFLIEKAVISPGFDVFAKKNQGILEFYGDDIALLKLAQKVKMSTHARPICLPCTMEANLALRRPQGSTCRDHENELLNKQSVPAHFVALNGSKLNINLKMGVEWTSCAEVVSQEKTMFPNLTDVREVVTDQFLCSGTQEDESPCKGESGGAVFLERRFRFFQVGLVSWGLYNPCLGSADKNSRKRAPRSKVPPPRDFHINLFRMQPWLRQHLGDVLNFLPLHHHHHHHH
The assay can be described thus: SPR, mAb captured, C2 mutant analyte.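 Note: Anti-C2 mAbs captured on goat anti-human IgG Biacore CM5 chips, alanine or serine C2 surface mutants flowed over at 37 °C, double-referenced sensorgrams fitted to a 1:1 binding model.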

B1: RF16-214 (antibody, V domains shown)
VH: EVQLLESGGGLVQPGGSLRLSCAASGFTFSWYQMMWVRQAPGKGLEWVSRIYPSGGGTAYADSVKGRFTISRDNSKNTLYLQMNSLRAEDTAVYYCARDAGYGDNWGQGTLVTVSS
VL: QSALTQPPSVSVSPGQTASITCSGDKLGEKYASWYQQKAGQSPVMVIYQDRKRPSGIPERFSGSNSGNTATLTISGTQAMDEADYYCQAWDTRAVVFGGGTKLTVLG
Molecule B1 showed a Fold diff with human C2 A436S of 1 fold. Further, the Kd – broadly, the free concentration of one partner at which half of the binding sites on the other are occupied at equilibrium, for simple one-to-one binding – in the assay with human C2 D417A amounted to 56.4 nM; with human C2 V465A, 72.7 nM; in the assay with human C2 E476A, 58.6 nM.
